Legend:
Assay in all cases: FRET or BRET
[1] = molecular target: ASIC3(1–43,466–505)1a-CER (rat) (UniProt O35240)
[2] = molecular target: ASIC3(506–519)1a-CER (rat) (UniProt O35240)
[3] = molecular target: ASIC3(466–505)1a-CER (rat) (UniProt O35240)
ASIC3(44–71)1a-CER = molecular target: T1, ASIC3(44–71)1a-CER (rat, UniProt O35240 1-43; P55926 44-71; O35240 72-533)
T1 chain (looked up): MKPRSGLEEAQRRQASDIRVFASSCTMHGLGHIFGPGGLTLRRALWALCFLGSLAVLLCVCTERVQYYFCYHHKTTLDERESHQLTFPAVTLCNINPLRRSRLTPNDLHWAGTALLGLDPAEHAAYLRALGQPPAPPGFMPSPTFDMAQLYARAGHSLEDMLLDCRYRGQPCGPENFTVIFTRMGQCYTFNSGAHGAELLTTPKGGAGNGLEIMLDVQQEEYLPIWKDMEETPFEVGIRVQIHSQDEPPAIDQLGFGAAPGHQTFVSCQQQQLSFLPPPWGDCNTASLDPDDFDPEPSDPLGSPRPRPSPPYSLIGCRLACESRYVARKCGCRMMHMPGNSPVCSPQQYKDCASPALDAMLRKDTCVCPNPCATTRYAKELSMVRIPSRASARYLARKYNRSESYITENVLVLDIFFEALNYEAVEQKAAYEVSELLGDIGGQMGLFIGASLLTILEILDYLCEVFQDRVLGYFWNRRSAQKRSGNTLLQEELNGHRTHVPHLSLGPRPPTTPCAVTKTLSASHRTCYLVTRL

ASIC3(Q269G)-CER = molecular target: T2, ASIC3(Q269G)-CER (rat, UniProt O35240 1-533, Q269G)
T2 sequence (looked up): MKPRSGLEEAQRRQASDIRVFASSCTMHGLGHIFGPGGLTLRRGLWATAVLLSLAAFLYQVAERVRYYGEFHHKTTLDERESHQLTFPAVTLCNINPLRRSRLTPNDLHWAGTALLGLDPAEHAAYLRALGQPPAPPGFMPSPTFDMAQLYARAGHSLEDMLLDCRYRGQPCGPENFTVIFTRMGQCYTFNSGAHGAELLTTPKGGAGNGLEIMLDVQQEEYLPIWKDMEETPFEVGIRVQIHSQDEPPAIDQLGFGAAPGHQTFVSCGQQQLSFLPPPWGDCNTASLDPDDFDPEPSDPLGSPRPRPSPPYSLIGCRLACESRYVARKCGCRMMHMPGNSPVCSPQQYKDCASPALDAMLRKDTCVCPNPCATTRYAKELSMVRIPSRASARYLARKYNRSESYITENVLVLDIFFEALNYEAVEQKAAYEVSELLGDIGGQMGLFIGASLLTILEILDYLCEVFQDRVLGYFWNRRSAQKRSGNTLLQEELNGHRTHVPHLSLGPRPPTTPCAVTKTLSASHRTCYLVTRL

[4] = molecular target: T3, ASIC3-CER (rat acid-sensing ion channel 3 with a C-terminal mCerulean3) (rat, UniProt O35240 1-533)
T3 sequence (looked up): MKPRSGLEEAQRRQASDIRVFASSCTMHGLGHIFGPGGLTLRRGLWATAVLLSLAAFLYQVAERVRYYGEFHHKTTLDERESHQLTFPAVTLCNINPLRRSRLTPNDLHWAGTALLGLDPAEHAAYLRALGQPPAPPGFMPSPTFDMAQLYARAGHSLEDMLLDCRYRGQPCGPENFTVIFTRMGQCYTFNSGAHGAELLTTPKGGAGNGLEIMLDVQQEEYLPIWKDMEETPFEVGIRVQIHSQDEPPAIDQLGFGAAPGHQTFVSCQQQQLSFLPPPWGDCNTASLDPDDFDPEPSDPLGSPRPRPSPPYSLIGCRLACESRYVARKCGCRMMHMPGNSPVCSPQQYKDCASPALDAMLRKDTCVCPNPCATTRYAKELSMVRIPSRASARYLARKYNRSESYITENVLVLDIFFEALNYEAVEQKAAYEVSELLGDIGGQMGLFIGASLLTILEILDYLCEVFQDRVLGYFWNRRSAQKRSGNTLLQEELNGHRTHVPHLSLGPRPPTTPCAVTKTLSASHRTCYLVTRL

- FRET efficiency [1]: 9.3%
- FRET efficiency [2]: 9.9%
- FRET efficiency [3]: 13.1%
- FRET efficiency (ASIC3(44–71)1a-CER): 11.8%
- FRET efficiency (ASIC3(Q269G)-CER): 10.3%
- FRET efficiency [4]: 12.5%
B1: STOM-YFP (mouse stomatin with a C-terminal EYFP) (natural protein, UniProt P54116 1-284, looked up)
chain: MSDKRQSSHVQSQRIPESFRENSKTELGACGWILVAASFFFVIITFPISIWICIKIVKEYERVIIFRLGRILQGGAKGPGLFFILPCTDSLIKVDMRTISFDIPPQEVLTKDSVTISVDGVVYYRVQNATLAVANITNADSATRLLAQTTLRNALGTKNLSQILSDREEIAHHMQSTLDDATDDWGIKVERVEIKDVKLPVQLQRAMAAEAEAAREARAKVIAAEGEMNASRALKEASMVITESPAALQLRYLQTLTTIAAEKNSTIVFPLPVDMLQGIMGSNH
